The target of test [1] is HKU4-CoV 3CLpro (bat coronavirus HKU4).
The target of test [2] is SARS-CoV 3CLpro with authentic N and C termini (SARS-CoV).
The target of test [3] is MERS-CoV 3CLpro (nsp5 protease), without any N- or C-terminal extensions (MERS-CoV). Kind of test: AUC.
Test [4] shares this target.

Where two headings read alike, the source gives them in different places.

Usually Kd stands for a measure of binding affinity in units of concentration. Lower therefore signals a tighter complex. With HKU4-CoV 3CLpro (enzyme), the Kd in test [1] amounted to 0.1 µM. That is a sub-micromolar value.
“SARS-CoV 3CLpro with authentic N and C termini (enzyme)” had a Kd in test [2] of 0.06 µM.
Broadly, the koff is the first-order rate constant of dissociation. Read a low koff as slow dissociation. Broadly, the stoichiometry N is a count of units in the complex or per binding partner. In test [3], “MERS-CoV 3CLpro (nsp5 protease), without any N- or C-terminal extensions (enzyme)” registered a Kd of 52 µM, a koff of 0.0001 s⁻¹ and a stoichiometry N of 2. In test [4], this substance yielded a Kd of 7.8 µM.

These data come from paper PMC4528106.
